Numbering of substitutions follows the chain as printed.

Data on 2 substances can be found in publication PMC7430671.

Data set [1] concerns the target T1, RapZCTD (Escherichia coli) (UniProt P0A894).
T1 sequence: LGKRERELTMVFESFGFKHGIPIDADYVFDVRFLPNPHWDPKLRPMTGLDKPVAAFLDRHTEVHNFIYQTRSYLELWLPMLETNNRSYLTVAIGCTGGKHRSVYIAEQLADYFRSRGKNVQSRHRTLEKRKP
The data set is described as follows: EMSA. Particulars: EMSA on non-denaturing PAA gels, phospho-imaging; buffer, pH and temperature not given here (as in Göpel 2016; Durica-Mitic and Görke 2019). For orientation: Mobility shift assays separate free from complexed probe on a gel.

Data set [2] has as its target T2, RapZCTDquad K270A;K281A;R282A;K283A (Escherichia coli) (UniProt P0A894).
T2 sequence: T1 sequence with K118A, K129A, R130A, K131A
The data set is described as follows: EMSA. Particulars: EMSA on non-denaturing PAA gels, phospho-imaging; buffer, pH and temperature not given here (as in Göpel 2016; Durica-Mitic and Görke 2019).

In data set [3] the target is T3, RapZquad (purified) K270A;K281A;R282A;K283A (Escherichia coli) (UniProt P0A894).
T3 sequence: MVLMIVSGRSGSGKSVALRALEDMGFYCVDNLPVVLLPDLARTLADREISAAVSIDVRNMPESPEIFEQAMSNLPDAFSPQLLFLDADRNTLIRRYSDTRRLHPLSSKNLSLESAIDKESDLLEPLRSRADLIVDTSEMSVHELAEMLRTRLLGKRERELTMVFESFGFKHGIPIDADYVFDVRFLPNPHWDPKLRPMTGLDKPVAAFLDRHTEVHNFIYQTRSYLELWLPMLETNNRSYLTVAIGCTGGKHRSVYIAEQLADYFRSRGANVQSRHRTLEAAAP
The data set is described as follows: EMSA. The settings on record: EMSA on non-denaturing PAA gels, phospho-imaging; buffer, pH and temperature not given here (as in Göpel 2016; Durica-Mitic and Görke 2019).

Data set [4] has as its target T4, RapZ1-279 (purified) del280-284 (Escherichia coli) (UniProt P0A894).
T4 sequence: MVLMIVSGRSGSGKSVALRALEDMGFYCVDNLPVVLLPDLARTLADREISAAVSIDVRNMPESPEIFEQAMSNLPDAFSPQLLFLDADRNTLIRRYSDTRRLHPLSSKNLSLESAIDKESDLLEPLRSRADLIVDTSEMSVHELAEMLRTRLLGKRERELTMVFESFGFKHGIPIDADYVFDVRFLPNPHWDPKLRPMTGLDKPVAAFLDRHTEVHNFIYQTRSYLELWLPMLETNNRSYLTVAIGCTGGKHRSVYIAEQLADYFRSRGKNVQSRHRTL
The data set is described as follows: EMSA. The settings on record: EMSA on non-denaturing PAA gels, phospho-imaging; buffer, pH and temperature not given here (as in Göpel 2016; Durica-Mitic and Görke 2019).

The target of data set [5] is T5, RapZCTD lacking the 5 C-terminal residues del280-284 (Escherichia coli) (UniProt P0A894).
T5 sequence: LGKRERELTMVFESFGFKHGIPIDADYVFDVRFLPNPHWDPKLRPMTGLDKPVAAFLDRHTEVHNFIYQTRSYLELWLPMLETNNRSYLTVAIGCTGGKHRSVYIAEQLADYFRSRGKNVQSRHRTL
The data set is described as follows: EMSA. The settings on record: EMSA on non-denaturing PAA gels, phospho-imaging; buffer, pH and temperature not given here (as in Göpel 2016; Durica-Mitic and Görke 2019).

In data set [6] the target is RapZ 1-279 T278G L279G (T25 fusion). The data set is described as follows: BACTH assay (self-interaction; β-galactosidase activity). Particulars: bottom panel; same RapZ1-279 variant fused to T18 and to T25; mean ± SD, n ≥ 2; parent: est. 4100; read off a plot.

Sequence of RapZ_(1–279), BACTH fusion (P0A894 whole entry T278G/L279G, looked up, the tested form may be a part): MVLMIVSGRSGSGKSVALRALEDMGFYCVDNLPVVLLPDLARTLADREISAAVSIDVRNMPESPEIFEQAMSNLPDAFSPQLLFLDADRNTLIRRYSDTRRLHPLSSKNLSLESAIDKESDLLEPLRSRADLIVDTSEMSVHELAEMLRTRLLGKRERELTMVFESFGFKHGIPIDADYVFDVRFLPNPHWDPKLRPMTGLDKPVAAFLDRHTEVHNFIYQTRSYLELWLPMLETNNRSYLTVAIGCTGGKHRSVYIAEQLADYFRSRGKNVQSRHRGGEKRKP

As for “GGGAGAGUAGAUGCUCAUUCCAUCUCUUAUGUUCGCCUUAGUGCCUCAUAAACUCCGGAAUGACGCAGAGCCGUUUACGGUGCUUAUCGUCCACUGACAGAUGUCGCUUAUGCCUCAUCAGACACCAUGGACACAACGUUGAGUGAAGCACCCACUUGUUGUCAUACAGACCUGUUUUAACGCCUGCUCCGUAAUAAGAGCAGGCGUUUUUUU [GlmZ sRNA (in vitro transcript)]”, the binding entry is reported as “binds” in data set [1]; “no binding” in data set [2]; “no binding” in data set [3]; “binds more weakly” in data set [4]; “no binding” in data set [5].

For “RapZ_(1–279), BACTH fusion (from UniProt P0A894) T278G; L279G”, the response in data set [6] was found to be 3600 Miller units.
